Results from the Human Domainome abundance scans (Beltran et al. 2025).

B1: Homeobox protein SIX6, residues 134 to 184; numbered along this chain, O95475 (parent)
chain: CFKERTRHLLREWYLQDPYPNPSKKRELAQATGLTPTQVGNWFKNRRQRDR

Variants of: B1
Test: abundance fitness (aPCA) (normalised: wild type 0, dead -1); higher = more abundant; growth selection in yeast, the domain comes from the species named
Conditions: Homo sapiens

Abundance fitness: each site, then its substitutions
N41: T -0.259 | W -0.754 | P -1 | V -0.269 | I -0.642 | C -0.158 | E -0.121 | L -0.278 | G -0.627 | S -0.342 | A -0.511 | Y -0.995 | Q -0.124 | M -0.38 | R 0.155 | K 0.351 | H -0.392
F43: M -0.94 | H -0.858 | S -0.872 | L -0.904 | D -0.775 | K -0.881 | R -0.92 | T -0.927 | A -1.01 | C -0.893 | I -0.649 | N -0.882 | E -0.821 | G -0.577
P36: S -0.177 | R -0.603 | F 0.217 | K -0.33 | A -0.225 | W -0.328 | G -0.664 | V -0.17 | H -0.553 | T -0.125 | N -0.542 | L -0.079 | Q -0.246 | D -0.357 | C -0.527 | Y 0.372 | I -0.107 | E 0.065
K25: F -0.272 | N -0.48 | G -0.789 | T -0.074 | P -0.648 | W -0.519 | Q 0.158 | D -0.741 | H -0.031 | L 0.049 | R -0.098 | Y -0.338 | S -0.423 | A -0.334 | I 0.118 | M -0.126
W42: R -0.762 | G -0.851 | D -0.769 | V -0.931 | T -0.581 | L -0.743 | M -0.881 | K -0.952 | E -0.683 | S -0.898 | F -0.649 | Q -0.726 | P -0.983 | A -1.05
L28: S -0.981 | H -0.903 | Q -0.88 | E -0.808 | Y -0.124 | V -0.378 | R -0.765 | I 0.064 | W -0.788 | C -0.79 | F -0.442 | G -0.883 | P -0.958 | M -0.04
T35: C -0.979 | R -0.813 | A -0.846 | E -0.399 | N -0.581 | G -0.886 | H -0.749 | Y -0.953 | P -0.877 | W -0.822 | F -0.773 | Q -0.809 | I -0.885 | M -0.703 | L -0.733 | S -0.128 | D -0.663
Q30: N -0.374 | E -0.193 | V -0.059 | T -0.051 | F -0.239 | D -0.064 | R -0.365 | W 0.057 | A -0.219 | M -0.006 | I 0.036 | L -0.25 | G -0.276 | Y -0.381 | P -0.893 | H -0.205 | K -0.03 | C -0.301
T37: R 0.084 | C -0.109 | Y -0.236 | M -0.249 | I -0.1 | E 0.018 | H -0.049 | D 0.026 | W -0.545 | L -0.197 | F -0.28 | K 0.568 | P -0.673 | G -0.133 | S -0.043 | V -0.076 | A -0.005 | Q 0.026 | N -0.169
K24: T -0.058 | V -0.13 | G -0.374 | F -0.984 | W -0.556 | N -0.281 | S -0.192 | R -0.104 | P -0.864 | H -0.493 | Y -0.714 | D -0.197 | Q 0.074 | I -0.051 | M -0.139 | E -0.188
Q38: D -0.626 | A -0.269 | S -0.841 | E -0.301 | K -0.608 | N -0.467 | I -0.702 | P -0.9 | W -0.742 | H -0.878 | C -0.798 | T -0.676 | F -0.741 | G -0.728 | Y -0.77 | V -0.87 | L -0.826 | R -0.868 | M -0.442
L34: I -0.638 | G -0.742 | M -0.044 | T -0.669 | C -0.806 | E -0.624 | Q -0.731 | S -0.707 | H -0.896 | N -0.826 | P -0.747 | D -0.936 | A -0.911 | K -0.722 | W -0.548 | V -0.861 | Y -0.587 | R -0.719 | F -0.725
A31: I 0.253 | S -0.292 | Q -0.001 | G -0.65 | Y -0.36 | D -0.888 | N -0.098 | T -0.045 | L 0.068 | H -0.514 | V -0.151 | R -0.185 | K -0.364 | F 0.262 | C -0.287 | E -0.14 | W -0.494 | M -0.008 | P -0.782
E27: H -0.773 | P -0.845 | W -0.231 | Q -0.758 | S -0.679 | V -0.731 | T -0.513 | N -0.683 | K -0.71 | L -0.483 | D -0.194 | F -0.318 | C -0.441 | G -0.805 | R -0.437 | M -0.696 | A -0.207
V39: W -0.896 | T -0.99 | M -0.944 | G -0.976 | I -0.096 | L -0.769 | R -0.882 | E -0.906 | Q -0.455 | D -0.953 | A -0.9 | K -0.556 | P -0.999 | Y -0.646 | S -0.934
G40: V -0.605 | D -0.503 | C -0.279 | T -0.175 | E -0.032 | F 0.225 | H -0.159 | R 0.127 | P -0.783 | Q -0.245 | S 0.152 | M -0.533 | K 0.335 | A 0.01 | W -0.467 | L -0.615 | N -0.579
A29: H -0.944 | L -0.917 | V -0.767 | S -0.058 | Q -0.527 | P -0.916 | R -0.982 | F -1.07 | T -1.07 | D -0.504 | N -1.03 | W -0.923 | I -0.727 | E -0.815 | G -0.397
T32: E -0.519 | F -0.947 | G -0.863 | K -0.932 | D -0.719 | Y -0.84 | V -0.294 | N -0.84 | C -0.174 | I -0.606 | P -0.783 | S -0.312 | W -0.873 | Q -1.01 | R -0.799 | A -0.572 | L -0.384
G33: Q -0.514 | H -0.61 | C -0.757 | A -0.712 | I -0.936 | S -0.598 | N -0.499 | P -0.848 | Y -0.741 | E -0.722 | D -0.629 | R -0.738 | L -0.735 | T -0.727 | W -0.853 | F -0.946 | K -0.679 | M -0.555
R26: K -0.024 | W -0.475 | V 0.055 | C 0.055 | E 0.037 | S -0.182 | L 0.039 | Q 0.264 | T -0.429 | P -0.836 | Y -0.378 | F -0.085 | N 0.069 | I -0.382 | H -0.121
